In publication PMC5224236 (ACS Chemical Biology, 2016):
Where two headings read alike, the source gives them in different places. Blank lines part the entries; values can stand above or below the binder they belong to.

What was measured:
Test in all cases: SPR
[1] = target: full-length p97 R155H (MSP1 mutant) (UniProt P55072 1-806, R155H)
[2] = target: T1, full-length wild-type p97/VCP (UniProt P55072 1-806)
[3] = target: full-length p97 A232E (MSP1 mutant) (UniProt P55072 1-806, A232E)
[4] = target: T1, full-length wild-type p97/VCP; remark: listed apart in the source
[5] = target: T1, full-length wild-type p97/VCP; remark: listed apart in the source

T1 sequence (P55072 whole entry): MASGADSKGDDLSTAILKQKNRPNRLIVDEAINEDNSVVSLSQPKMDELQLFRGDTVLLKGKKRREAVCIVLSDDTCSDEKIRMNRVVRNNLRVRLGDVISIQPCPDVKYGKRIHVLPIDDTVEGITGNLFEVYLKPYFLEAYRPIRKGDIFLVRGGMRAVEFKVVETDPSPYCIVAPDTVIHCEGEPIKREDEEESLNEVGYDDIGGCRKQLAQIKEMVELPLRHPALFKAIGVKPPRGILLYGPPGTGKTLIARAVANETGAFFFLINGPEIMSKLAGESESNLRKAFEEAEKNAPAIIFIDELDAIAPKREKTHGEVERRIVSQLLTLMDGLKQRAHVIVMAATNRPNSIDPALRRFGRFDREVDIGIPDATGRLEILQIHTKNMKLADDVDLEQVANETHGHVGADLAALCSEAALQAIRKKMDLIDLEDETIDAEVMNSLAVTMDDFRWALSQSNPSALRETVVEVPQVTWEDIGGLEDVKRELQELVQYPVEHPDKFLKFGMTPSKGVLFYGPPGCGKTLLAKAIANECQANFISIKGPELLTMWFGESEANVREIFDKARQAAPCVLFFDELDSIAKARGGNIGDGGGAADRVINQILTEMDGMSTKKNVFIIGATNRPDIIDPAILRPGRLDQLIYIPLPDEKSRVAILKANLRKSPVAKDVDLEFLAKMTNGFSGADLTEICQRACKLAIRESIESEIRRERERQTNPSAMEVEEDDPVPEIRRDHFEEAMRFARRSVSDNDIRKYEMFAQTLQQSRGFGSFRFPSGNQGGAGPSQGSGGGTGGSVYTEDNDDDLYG
Sequence of full-length p97 A232E (MSP1 mutant) (P55072 whole entry A232E): as the sequence (P55072 whole entry) above, with A232E counted along it
Sequence of full-length p97 R155H (MSP1 mutant) (P55072 whole entry R155H): as the sequence (P55072 whole entry) above, with R155H counted along it

KD, high-affinity site (two-site fit) [1]: 18 nM
KD, high-affinity site (two-site fit) [2]: 184 nM
KD, high-affinity site (two-site fit) [3]: 21 nM
B1: full-length human p47 (natural protein, UniProt Q9UNZ2 1-370, looked up)
chain: MAAERQEALREFVAVTGAEEDRARFFLESAGWDLQIALASFYEDGGDEDIVTISQATPSSVSRGTAPSDNRVTSFRDLIHDQDEDEEEEEGQRFYAGGSERSGQQIVGPPRKKSPNELVDDLFKGAKEHGAVAVERVTKSPGETSKPRPFAGGGYRLGAAPEEESAYVAGEKRQHSSQDVHVVLKLWKSGFSLDNGELRSYQDPSNAQFLESIRRGEVPAELRRLAHGGQVNLDMEDHRDEDFVKPKGAFKAFTGEGQKLGSTAPQVLSTSSPAQQAENEAKASSSILIDESEPTTNIQIRLADGGRLVQKFNHSHRISDIRLFIVDARPAMAATSFILMTTFPNKELADESQTLKEANLLNAVIVQRLT

Kd [4]: 46 nM
Kd [5]: 19 nM
Kd [2]: 372 nM
B2: p37 (natural protein, human, UniProt Q14CS0 1-331, looked up)
chain: MAEGGGPEPGEQERRSSGPRPPSARDLQLALAELYEDEVKCKSSKSNRPKATVFKSPRTPPQRFYSSEHEYSGLNIVRPSTGKIVNELFKEAREHGAVPLNEATRASGDDKSKSFTGGGYRLGSSFCKRSEYIYGENQLQDVQILLKLWSNGFSLDDGELRPYNEPTNAQFLESVKRGEIPLELQRLVHGGQVNLDMEDHQDQEYIKPRLRFKAFSGEGQKLGSLTPEIVSTPSSPEEEDKSILNAVVLIDDSVPTTKIQIRLADGSRLIQRFNSTHRILDVRNFIVQSRPEFAALDFILVTSFPNKELTDESLTLLEADILNTVLLQQLK
